Read-outs that look alike come from different tables or passages of the source.
What was measured:
Test in all cases: SPR
[1] = biological target: Turnip mosaic virus (TuMV) viral protein-genome linked (VPg), His-tagged (turnip mosaic virus)
[2] = biological target: Turnip mosaic virus (TuMV) viral protein-genome linked (VPg), His-tagged (turnip mosaic virus); remark: listed apart in the source
[3] = biological target: Turnip mosaic virus (TuMV) viral protein-genome linked (VPg), His-tagged (turnip mosaic virus); remark: listed apart in the source

Sequence of Turnip mosaic virus (TuMV) viral protein-genome linked (VPg), His-tagged (turnip mosaic virus) (P89509 1925-2116 limits assumed): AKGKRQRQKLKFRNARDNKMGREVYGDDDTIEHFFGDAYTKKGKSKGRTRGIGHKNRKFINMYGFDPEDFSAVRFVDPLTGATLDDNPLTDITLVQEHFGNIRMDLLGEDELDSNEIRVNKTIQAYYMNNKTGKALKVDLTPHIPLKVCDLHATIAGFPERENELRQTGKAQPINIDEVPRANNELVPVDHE

Molecule	Kd [1]	koff [1]	kon [1]	Kd [2]	koff [2]	kon [2]	Kd [3]	koff [3]	kon [3]
N-terminal 33 residues-deleted human eIF4E (from UniProt P06730 34-217) (domain or fragment)	3290 nM	0.00447 s⁻¹	1360 M⁻¹ s⁻¹						
Arabidopsis thaliana eIFiso4E (natural protein) MATDDVNEPLPAAAELPATEAEKQPHKLERKWSFWFDNQSKKGAAWGASLRKAYTFDTVEDFWGLHETIFQTSKLTANAEIHLFKAGVEPKWEDPECANGGKWTWVVTANRKEALDKGWLETLMALIGEQFDEADEICGVVASVRPQSKQDKLSLWTRTKSNEAVLMGIGKKWKEILDVTDKITFNNHDDSRRSRFTV				1410 nM	0.00459 s⁻¹	3250 M⁻¹ s⁻¹	208 nM	0.00432 s⁻¹	20800 M⁻¹ s⁻¹
